This is an account of results in patent US20240209100A1 (DIAGONAL THERAPEUTICS, published 2024).

For test [1], the target named is T1, IL-18 receptor (IL-18Rα/IL-18Rβ) overexpressed on HEK-Blue IL-18 cells (Homo sapiens (Human), UniProt Q13478 19-541; O95256 20-599).
T1 sequence 1: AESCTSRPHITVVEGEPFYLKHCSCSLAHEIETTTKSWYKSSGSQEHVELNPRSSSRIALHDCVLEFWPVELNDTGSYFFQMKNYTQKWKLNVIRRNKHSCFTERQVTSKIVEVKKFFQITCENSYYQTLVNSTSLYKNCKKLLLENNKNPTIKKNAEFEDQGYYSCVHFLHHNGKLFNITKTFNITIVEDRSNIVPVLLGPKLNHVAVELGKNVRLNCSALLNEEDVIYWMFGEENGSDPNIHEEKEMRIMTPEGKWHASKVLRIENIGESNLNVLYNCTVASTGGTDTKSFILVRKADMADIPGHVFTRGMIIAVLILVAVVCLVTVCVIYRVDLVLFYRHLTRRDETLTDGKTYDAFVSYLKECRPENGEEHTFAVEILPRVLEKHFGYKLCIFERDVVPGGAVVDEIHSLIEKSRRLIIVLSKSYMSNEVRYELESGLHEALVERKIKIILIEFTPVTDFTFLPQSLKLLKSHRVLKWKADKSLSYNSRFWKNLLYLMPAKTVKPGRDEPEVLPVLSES
T1 sequence 2: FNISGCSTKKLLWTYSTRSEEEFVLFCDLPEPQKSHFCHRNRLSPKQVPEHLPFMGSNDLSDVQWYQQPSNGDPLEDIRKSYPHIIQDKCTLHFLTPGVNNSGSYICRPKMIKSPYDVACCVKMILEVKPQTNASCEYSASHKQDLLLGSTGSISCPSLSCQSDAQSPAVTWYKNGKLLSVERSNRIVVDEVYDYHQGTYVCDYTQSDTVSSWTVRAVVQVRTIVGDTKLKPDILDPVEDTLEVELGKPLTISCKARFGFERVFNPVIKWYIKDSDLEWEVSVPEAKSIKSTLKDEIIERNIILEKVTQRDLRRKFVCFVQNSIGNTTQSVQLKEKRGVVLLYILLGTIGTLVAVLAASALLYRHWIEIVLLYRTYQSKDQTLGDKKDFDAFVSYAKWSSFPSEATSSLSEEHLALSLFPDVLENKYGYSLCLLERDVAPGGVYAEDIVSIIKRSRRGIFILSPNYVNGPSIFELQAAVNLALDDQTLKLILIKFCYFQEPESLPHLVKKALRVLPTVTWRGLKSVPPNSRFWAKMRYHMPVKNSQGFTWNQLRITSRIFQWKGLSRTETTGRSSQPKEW
Put plainly: cell-based or functional assay.

Test [2] deals with T1, IL-18 receptor (IL-18Rα/IL-18Rβ) …. Put plainly: cell-based or functional assay. This is another data set of the same source.

B1: DGL091 (bispecific antibody, V domains shown)
V domain 1: QVQLVESGGGLVQAGGSLRLSCAASGRTFSKHAMGWFRQAPGKEREFVAAIDWSGGSTYYADSVKGRFTISRDNAKNTVYLQMDSLKPEDTAVYYCAADSYTDYAQLWLPELESEYDYWGQGTQVTVSS
V domain 2: QVQLVESGGGLVQAGDSLRLSCVASERTFSSYTMGWFRQAPGKEREFTAALSWWNGGISTAYADSVKGRFTISRDNAKNTVYLQMNSLKTEDTALYYCAAARDRMPRADEYDYWGQGTQVTVSS
Take B1: in test [1], the “HEK-Blue IL-18: Abs405 (Emax)” value amounted to 0.35 Abs and the “HEK-Blue IL-18: EC50” value came to 0.032 nM.

B2: DGL092 (bispecific antibody, V domains shown)
V domain 1: B1 V domain 1
V domain 2: EVQLVESGGGLVQAGGSLRLSCAASGRTFRNYHMGWFRQAPGQEREFVAAISSSGGKTSYPDSVNGRFTISRDNAKNTVYLQMNNLKVEDTAVYYCAADPRYWVAAGGSEPENVEVWGQGTLVTVSS
As for B2, in test [1], the “HEK-Blue IL-18: Abs405 (Emax)” value turned out to be 0.61 Abs and the “HEK-Blue IL-18: EC50” value came to 0.019 nM.

B3: DGL208 (bispecific antibody)
heavy 1: QVQLVESGGGLVQAGGSLRLSCAASGRTFSKHAMGWFRQAPGKEREFVAAIDWSGGSTYYADSVKGRFTISRDNAKNTVYLQMDSLKPEDTAVYYCAADSYTDYAQLWLPELESEYDYWGQGTLVTVSSPLAPDKTHTCPPCPAPEAAGAPSVFLFPPKPKDTLMISRTPEVTCVVVDVSHEDPEVKFNWYVDGVEVHNAKTKPREEQYNSTYRVVSVLTVLHQDWLNGKEYKCKVSNKALPAPIEKTISKAKGQPREPQVCTLPPSRDELTKNQVSLSCAVKGFYPSDIAVEWESNGQPENNYKTTPPVLDSDGSFFLVSKLTVDKSRWQQGNVFSCSVMHEALHNHYTQKSLSLSPGWSHPQFEK
heavy 2: not shown
Consider B3, for which, in test [2], the “HEK-Blue IL-18: Abs 405 at 100 nM” value was 1.4 Abs and the “HEK-Blue IL-18: Fold over Background” value was 5.9 fold.

B4: DGL094 (bispecific antibody, V domains shown)
V domain 1: QVQLVESGGGLVQAGGSLRLSCAASGRTFSSYTMGWFRQAPGKEREFVAAISWSAGRTYYADSVKGRFTISRDNAKNTVYLQMNSLKPEDTAVYFCAAEEAPDWAPIDCSGYGCLSLYDYWGQGTQVTVSS
V domain 2: QVQLVESGGGLVLPGESLRLSCVVSGTIDNINSMGWYRQAPGKQRELVAYITKLGSANYADSVEGRFTISRDNAKKTVHLQMNSLKPEDTAVYYCHANERGRITWAQGTQVTVSS
As for B4, in test [1], the “HEK-Blue IL-18: Abs405 (Emax)” value was 0.7 Abs and the “HEK-Blue IL-18: EC50” value worked out at 0.019 nM.

B5: DGL097 (bispecific antibody, V domains shown)
V domain 1: QVQLVESGGGLVQAGGSLRLSCAASGRTFSSYDMGWFRQAPGKEREFVAALRWSGGSTSYADSVKGRFTISRDNAKNTVYLHMNSLKPEDTAVYYCAATLETDSGTYWADYWGQGTQVTVSS
V domain 2: QVQLVESGGGLVQAGGSLRLSCVASGTFFQIHVMGWYRQAPGKQRELVAFIINNGGTRYADSVKGRFTISRDYAKNTVYLQMNSLKPEDTAVYYCNTEGTYRGRYSTDNWGQGTQVTVSS
Take B5: in test [1], the “HEK-Blue IL-18: Abs405 (Emax)” value was determined as 0.45 Abs and the “HEK-Blue IL-18: EC50” value was found to be 0.014 nM.

B6: DGL209 (bispecific antibody)
heavy 1: QVQLVESGGGLVQAGGSLRLSCAASGRTFSKHAMGWFRQAPGKEREFVAAIDWSGGSTYYADSVKGRFTISRDNAKNTVYLQMDSLKPEDTAVYYCAADSYTDYAQLWLPELESEYDYWGQGTLVTVSSPLAPCPPCPAPEAAGAPSVFLFPPKPKDTLMISRTPEVTCVVVDVSHEDPEVKFNWYVDGVEVHNAKTKPREEQYNSTYRVVSVLTVLHQDWLNGKEYKCKVSNKALPAPIEKTISKAKGQPREPQVCTLPPSRDELTKNQVSLSCAVKGFYPSDIAVEWESNGQPENNYKTTPPVLDSDGSFFLVSKLTVDKSRWQQGNVFSCSVMHEALHNHYTQKSLSLSPGWSHPQFEK
heavy 2: QLQLVESGGGLVQAGGSLRLSCAASRSITFSHNVMGWYRQAPGKQRELVASIGSGGSTNYVDSVKGRATISRDNAKKTVYLQMNSLKPEDTAVYYCGVVVGVYRGSLGQGTLVTVSSPLAPCPPCPAPEAAGAPSVFLFPPKPKDTLMISRTPEVTCVVVDVSHEDPEVKFNWYVDGVEVHNAKTKPREEQYNSTYRVVSVLTVLHQDWLNGKEYKCKVSNKALPAPIEKTISKAKGQPREPQVYTLPPCRDELTKNQVSLWCLVKGFYPSDIAVEWESNGQPENNYKTTPPVLDSDGSFFLYSKLTVDKSRWQQGNVFSCSVMHEALHNHYTQKSLSLSPGEPEA
For the molecule B6, in test [2], the “HEK-Blue IL-18: Abs 405 at 100 nM” value was 2 Abs and the “HEK-Blue IL-18: Fold over Background” value was determined as 8.7 fold.

B7: DGL078 (bispecific antibody, V domains shown)
V domain 1: QVQLQESGGGLVQAGGSLRLSCIVSGSIVRIDFMGWYRQAPGKKRDMVATITTGGSTNYADSVKDRFTISRDNAKNTLSLQVNDLKPEDTAVYYCNSVVHTTSRPPVLYWGQGTQVTVSS
V domain 2: EVQLVESGGGVAQAGGSLRLSCAASITSFSLNTMGYYRQLPGKQRELVAVESSSGITNYADSVKGRFTISRDGAKNTVFLQMNSLTPEDTAVYYCGGKLFGRDFWGQGTQVTVSS
With B7, in test [1], the “HEK-Blue IL-18: Abs405 (Emax)” value was 0.65 Abs and the “HEK-Blue IL-18: EC50” value worked out at 0.024 nM.

B8: DGL049 (bispecific antibody, V domains shown)
V domain 1: B7 V domain 1
V domain 2: QVQLVESGGDLVLPGGSLKLSCEASGSISSRNSMAWYRRAPGKQRELVAAISSISSGGRTDYADFVKGRFTIFRDTAKNMVYLQMNNLKPEDTAVYDCDDPIRVASLAYDDWGQGTQVTVSS
Turning to B8, in test [1], the “HEK-Blue IL-18: Abs405 (Emax)” value was determined as 0.34 Abs and the “HEK-Blue IL-18: EC50” value was 0.01 nM.

B9: DGL079 (bispecific antibody, V domains shown)
V domain 1: EVQLVESGGGLVQAGGSLRLSCAASGRTFSNYDMGWFRQAPEKEREFVAVISGPGGIAFYGDSVKGRFTISRDNTKNTVYLQMNRLKSEDTAVYYCAAAPRGSYYRRTNSYDYWGQGTQVTVSS
V domain 2: B7 V domain 2
B9: in test [1], the “HEK-Blue IL-18: Abs405 (Emax)” value came out at 0.32 Abs and the “HEK-Blue IL-18: EC50” value is 0.017 nM.

B10: DGL210 (bispecific antibody)
heavy 1: QVQLVESGGGLVQAGGSLRLSCAASGRTFSKHAMGWFRQAPGKEREFVAAIDWSGGSTYYADSVKGRFTISRDNAKNTVYLQMDSLKPEDTAVYYCAADSYTDYAQLWLPELESEYDYWGQGTLVTVSSGGGGSGGGGSGGGGSGGGGSCPPCPAPEAAGAPSVFLFPPKPKDTLMISRTPEVTCVVVDVSHEDPEVKFNWYVDGVEVHNAKTKPREEQYNSTYRVVSVLTVLHQDWLNGKEYKCKVSNKALPAPIEKTISKAKGQPREPQVCTLPPSRDELTKNQVSLSCAVKGFYPSDIAVEWESNGQPENNYKTTPPVLDSDGSFFLVSKLTVDKSRWQQGNVFSCSVMHEALHNHYTQKSLSLSPGWSHPQFEK
heavy 2: QLQLVESGGGLVQAGGSLRLSCAASRSITFSHNVMGWYRQAPGKQRELVASIGSGGSTNYVDSVKGRATISRDNAKKTVYLQMNSLKPEDTAVYYCGVVVGVYRGSLGQGTLVTVSSGGGGSGGGGSGGGGSGGGGSCPPCPAPEAAGAPSVFLFPPKPKDTLMISRTPEVTCVVVDVSHEDPEVKFNWYVDGVEVHNAKTKPREEQYNSTYRVVSVLTVLHQDWLNGKEYKCKVSNKALPAPIEKTISKAKGQPREPQVYTLPPCRDELTKNQVSLWCLVKGFYPSDIAVEWESNGQPENNYKTTPPVLDSDGSFFLYSKLTVDKSRWQQGNVFSCSVMHEALHNHYTQKSLSLSPGEPEA
On to B10, for which, in test [2], the “HEK-Blue IL-18: Abs 405 at 100 nM” value amounted to 1.1 Abs and the “HEK-Blue IL-18: Fold over Background” value amounted to 4.6 fold.

B11: DGL090 (bispecific antibody, V domains shown)
V domain 1: EVQLVESGGGLVQPGGSLRLSCAASGFFLDDYVLGWFRQAPGKPREGVSCISSRGRYLNYAETVKGRFTISRSNAKNTVYLQMNNLEPEDTAVYYCAAVRRVSEVCKLAEDDFASWGQGTQVTVSS
V domain 2: QVQLQESGGGLVQAGGSLKLSCQASGLTFKRNTMGWFRQAPGKEREFVAHFLWTGGETDYADAVKGRFTISRDNAKNTVYLQMNSLKPEDTAVYFCAANYAGYRIDGYQYWGQGTQVTVSS
For the molecule B11, in test [1], the “HEK-Blue IL-18: Abs405 (Emax)” value amounted to 0.26 Abs and the “HEK-Blue IL-18: EC50” value came to 0.033 nM.

B12: DGL082 (bispecific antibody, V domains shown)
V domain 1: EVQLVESGGGLVQPGGSLRLSCAASGSIFSINAMGWYRQAPGKQREVVATSTGGGMTNYADSVKGRFTISRDNAKNTVYLQMNSLKPEDTAVYYCNADKDPFFPGDYWGQGTQVTVSS
V domain 2: QVQLVESGGGLVQAGGSLRLSCAASGRSVSENDVRWYRQAPRKQREWVAAITSSGITGYADSVRIRFTISRDLAKNTVYLQMNSLKPEDTAVYYCYMTDQYWGQGTQVTVSS
Consider B12, for which, in test [1], the “HEK-Blue IL-18: Abs405 (Emax)” value turned out to be 0.47 Abs and the “HEK-Blue IL-18: EC50” value amounted to 0.012 nM.
